How the values were obtained:
Type in all cases: biochemical
3′-azido-ddCTP [1] = test: Titration assay for chain terminator incorporation efficiency (3′-azido-ddCTP); details: 3′-azido-ddCTP:dNTP 10:1, 2.5:1, 1:2.5; FIG. 1
Method: FIG. 1A-1D show titration assays for chain terminator incorporation efficiency. The relative efficiency of incorporation of modified nucleotide terminators was assessed using the titration assay described in Gardner and Jack Nucleic Acids Research 30: 605-613 (2002). A dye-labeled oligonucleotide primer 5′-AGTGAATTCGAGCTCGGTACCCGGGGATCCTCTAGAGTCGACCTGCAGGC-3′ was annealed to a single-stranded M13mp18 DNA template (Accession No. X02513) and extended by a DNA polymerase in the presence of various ratios of 3′-azido-ddCTP:dNTP (10:1, 2.5:1, 1:2.5) or dNTP (“dN” in the figure) alone in 1×ThermoPol buffer (20 mM Tris-HCl, 10 mM (NH4)2SO4,10 mM KCl, 2 mM MgSO4, 0.1% Triton X-100, pH 8.8 @ 25° C.). […]
In order to determine the extent of 3′-modified nucleotide incorporation by archaeon DNA polymerases, the titration assay described by Gardner and Jack (2002) was used. […] By comparing the amount of terminator required to give the same spectrum of reaction products, the relative efficiency of incorporation of the test compounds with the different polymerases was determined. […]
Once the spectrum of termination products was determined, a comparison of the length, uniformity and clarity of these patterns was used to evaluate incorporation of the terminator. […]
The size distribution of termination products was determined by the relative rates of dNTP and terminator incorporation. […]

modified nucleotide = test: Screen of DNA polymerase mutants for modified nucleotide incorporation
In short: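 Chain-terminator titration (Gardner and Jack 2002) compared terminator amounts giving equal product-size spectra, product size shrinking as terminator incorporation rises. Applied to purified 9° N exo- polymerase library mutants with 3′-azido-ddCTP and 3′-amino-ddCTP; incorporation rates also measured.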

3′-azido-ddCTP [2] = test: Kinetic analysis of 3′-azido-ddCTP incorporation (primer extension, PAGE)
Method: An IR800-dye-labeled synthetic primer 5′-AGTGAATTCGAGCTCGGTACCCGGGGATCCTCTAGAGTCGACCTGCAGGC-3′ (SEQ ID NO:18) was annealed to a template 3′-TCACTTAAGCTCGAGCCATGGGCCCCTAGGAGATCTCAGCTGGACGTCCGGATCCTATACTAATCCC-5′ (SEQ ID NO:19) and used as a substrate to measure rates of 3′-azido-ddCTP incorporation. Incorporation of varying concentrations of 3′-azido-ddCTP (100, 50, 25, 12.5, 6.25, and 3.125 μM) by 9° N exo-L408S/Y409A/P410V DNA polymerase was monitored over a three-minute time course. Reaction aliquots were sampled at 10, 20, 30, 45, 60, and 180 seconds and analyzed by 20% denaturing PAGE. “S” is the unextended primer and “P” is the fully extended product corresponding to 3′-azido-ddCMP addition at the +1 position.
(§1) An IR800-dye-labeled synthetic primer 5′-AGTGAATTCGAGCTCGGTACCCGGGGATCCTCTAGAGTCGACCTGCAGGC-3′ (SEQ ID NO:18) was annealed to a template 3′-TCACTTAAGCTCGAGCCATGGGCCCCTAGGAGATCTCAGCTGGACGTCCGGATCCTATACTAATCCC-5′ (SEQ ID NO:19) and used as a substrate. Reaction aliquots were sampled at 10, 30, 60, 120 and 300 seconds and analyzed by 20% denaturing PAGE. Unextended primer (0) and fully extended product (+1) are indicated.
Linear rates of 3′-azido-ddCTP incorporation derived from these curves are 100 μM: 0.05 s^−1; 50 μM: 0.05 s^−1; 25 μM: 0.05s^−1; 12.5 μM: 0.03s^−1; 6.25 μM: 0.03s^−1; 3.125 μM: 0.02 s^−1.
An IR800-dye-labeled synthetic primer 5′-AGTGAATTCGAGCTCGGTACCCGGGGATCCTCTAGAGTCGACCTGCAGGC-3′ (SEQ ID NO:18 was annealed to a template 3′-TCACTTAAGCTCGAGCCATGGGCCCCTAGGAGATCTCAGCTGGACGTCCGGATCCTATACTAATCCC-5′ (SEQ ID NO:19) and used as a substrate to measure rates of 3′-azido-ddCTP incorporation over a three-minute time course. The results are shown in FIG. 2. Reaction aliquots were sampled at 10, 20, 30, 45, 60, and 180 seconds and analyzed by 20% denaturing PAGE where “S” indicates the unextended primer and “P” the fully extended product corresponding to 3′-azido-ddCMP addition at the +1 position(B). 9° N exo-L408S/Y409A/P410V incorporation of varying concentrations of 3′-azido-ddCTP was measured over a three-minute time course.

3′-amino-ddCTP = test: Kinetic analysis of 3′-amino-ddCTP incorporation (primer extension, PAGE); details: FIG. 3
Source text: as §1
Furthermore, the same assay was used to measure 3′-amino-ddCTP incorporation by 9° N exo-L408S/Y409A/P410V (FIG. 3) and to measure rates of incorporation (FIG. 4). Examples of mutants that increased modified nucleotide incorporation by at least two-fold were: […]

Row | 3′-azido-ddCTP incorporation efficiency relative to wild-type 9° N exo-DNA polymerase (3′-azido-ddCTP [1]) | increase of modified nucleotide incorporation (modified nucleotide) | Molecule | linear rate of 3′-azido-ddCTP incorporation (3′-azido-ddCTP [2]; 3.125 μM 3′-azido-ddCTP) | linear rate of 3′-azido-ddCTP incorporation (3′-azido-ddCTP [2]; 6.25 μM 3′-azido-ddCTP) | linear rate of 3′-azido-ddCTP incorporation (3′-azido-ddCTP [2]; 12.5 μM 3′-azido-ddCTP) | linear rate of 3′-azido-ddCTP incorporation (3′-azido-ddCTP [2]; 25 μM 3′-azido-ddCTP) | linear rate of 3′-azido-ddCTP incorporation (3′-azido-ddCTP [2]; 50 μM 3′-azido-ddCTP) | linear rate of 3′-azido-ddCTP incorporation (3′-azido-ddCTP [2]; 100 μM 3′-azido-ddCTP) | concentration of modified nucleotide sufficient for efficient incorporation (3′-azido-ddCTP [2]; 3′-azido-ddCTP, FIG. 3) | 3′-azido-ddCTP incorporation (3′-azido-ddCTP [2]; after three minutes) | concentration of modified nucleotide sufficient for efficient incorporation (3′-amino-ddCTP)
1 | at least 2 fold | at least two-fold | 9° N exo-L408S/P410V: 9° N DNA polymerase mutant (protein, UniProt Q56366 1-775, looked up, variant D141A E143A L408S P410V) DNA polymerase: MILDTDYITENGKPVIRVFKKENGEFKIEYDRTFEPYFYALLKDDSAIEDVKKVTAKRHGTVVKVKRAEKVQKKFLGRPIEVWKLYFNHPQDVPAIRDRIRAHPAVVDIYEYDIPFAKRYLIDKGLIPMEGDEELTMLAFAIATLYHEGEEFGTGPILMISYADGSEARVITWKKIDLPYVDVVSTEKEMIKRFLRVVREKDPDVLITYNGDNFDFAYLKKRCEELGIKFTLGRDGSEPKIQRMGDRFAVEVKGRIHFDLYPVIRRTINLPTYTLEAVYEAVFGKPKEKVYAEEIAQAWESGEGLERVARYSMEDAKVTYELGREFFPMEAQLSRLIGQSLWDVSRSSTGNLVEWFLLRKAYKRNELAPNKPDERELARRRGGYAGGYVKEPERGLWDNIVYLDFRSSYVSIIITHNVSPDTLNREGCKEYDVAPEVGHKFCKDFPGFIPSLLGDLLEERQKIKRKMKATVDPLEKKLLDYRQRAIKILANSFYGYYGYAKARWYCKECAESVTAWGREYIEMVIRELEEKFGFKVLYADTDGLHATIPGADAETVKKKAKEFLKYINPKLPGLLELEYEGFYVRGFFVTKKKYAVIDEEGKITTRGLEIVRRDWSEIAKETQARVLEAILKHGDVEEAVRIVKEVTEKLSKYEVPPEKLVIHEQITRDLRDYKATGPHVAVAKRLAARGVKIRPGTVISYIVLKGSGRIGDRAIPADEFDPTKHRYDAEYYIENQVLPAVERILKAFGYRKEDLRYQKTKQVGLGAWLKVKGKK |  |  |  |  |  |  |  |  | 
2 |  | at least two-fold | 9° N exo-L408S/Y409A/P410V: 9° N DNA polymerase mutant (Therminator III™, NEB) (protein, UniProt Q56366 1-775, looked up, variant D141A E143A L408S Y409A P410V) DNA polymerase: MILDTDYITENGKPVIRVFKKENGEFKIEYDRTFEPYFYALLKDDSAIEDVKKVTAKRHGTVVKVKRAEKVQKKFLGRPIEVWKLYFNHPQDVPAIRDRIRAHPAVVDIYEYDIPFAKRYLIDKGLIPMEGDEELTMLAFAIATLYHEGEEFGTGPILMISYADGSEARVITWKKIDLPYVDVVSTEKEMIKRFLRVVREKDPDVLITYNGDNFDFAYLKKRCEELGIKFTLGRDGSEPKIQRMGDRFAVEVKGRIHFDLYPVIRRTINLPTYTLEAVYEAVFGKPKEKVYAEEIAQAWESGEGLERVARYSMEDAKVTYELGREFFPMEAQLSRLIGQSLWDVSRSSTGNLVEWFLLRKAYKRNELAPNKPDERELARRRGGYAGGYVKEPERGLWDNIVYLDFRSSAVSIIITHNVSPDTLNREGCKEYDVAPEVGHKFCKDFPGFIPSLLGDLLEERQKIKRKMKATVDPLEKKLLDYRQRAIKILANSFYGYYGYAKARWYCKECAESVTAWGREYIEMVIRELEEKFGFKVLYADTDGLHATIPGADAETVKKKAKEFLKYINPKLPGLLELEYEGFYVRGFFVTKKKYAVIDEEGKITTRGLEIVRRDWSEIAKETQARVLEAILKHGDVEEAVRIVKEVTEKLSKYEVPPEKLVIHEQITRDLRDYKATGPHVAVAKRLAARGVKIRPGTVISYIVLKGSGRIGDRAIPADEFDPTKHRYDAEYYIENQVLPAVERILKAFGYRKEDLRYQKTKQVGLGAWLKVKGKK | 0.02 s⁻¹ | 0.03 s⁻¹ | 0.03 s⁻¹ | 0.05 s⁻¹ | 0.05 s⁻¹ | 0.05 s⁻¹ | 10 µM | ~100% | 10 µM
